In assay [1] the target is Ypt7 T40A (two-hybrid fusion) (S. cerevisiae, UniProt P32939 1-208, T40A | C206S | C208S). The assay is described as follows: two-hybrid.
For assay [2], the target named is Ypt7 Q68L (two-hybrid fusion) (S. cerevisiae, UniProt P32939 1-208, Q68L | C206S | C208S). The assay is described as follows: two-hybrid.
In assay [3] the target is Ypt7 D129A (two-hybrid fusion) (S. cerevisiae, UniProt P32939 1-208, D129A | C206S | C208S). As to the kind of experiment: two-hybrid.
Assay [4] deals with Ypt7 (two-hybrid fusion, ypt7 C206S, C208S) (S. cerevisiae, UniProt P32939 1-208, C206S | C208S). As to the kind of experiment: two-hybrid.
The target in assay [5] is Ypt7 T22N (two-hybrid fusion) (S. cerevisiae, UniProt P32939 1-208, T22N | C206S | C208S). The assay is described as follows: two-hybrid.
A further assay concerns the target T1, Ras1 (two-hybrid fusion) (UniProt P01119 1-309).
T1 sequence: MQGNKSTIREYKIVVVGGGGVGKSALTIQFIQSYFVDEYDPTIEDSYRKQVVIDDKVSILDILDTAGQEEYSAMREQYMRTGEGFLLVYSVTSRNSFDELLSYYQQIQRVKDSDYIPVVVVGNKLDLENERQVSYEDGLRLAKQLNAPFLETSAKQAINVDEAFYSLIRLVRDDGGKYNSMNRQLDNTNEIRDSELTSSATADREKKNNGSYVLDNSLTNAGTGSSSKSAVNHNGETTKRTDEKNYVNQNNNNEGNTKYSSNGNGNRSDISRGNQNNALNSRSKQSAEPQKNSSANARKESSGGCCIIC
As to the kind of experiment: two-hybrid.

For assay [6], the target named is Ypt7 I41S (two-hybrid fusion) (S. cerevisiae, UniProt P32939 1-208, I41S | C206S | C208S). The assay is described as follows: two-hybrid.
Assay [7] concerns the target T2, Vps11 (two-hybrid fusion) (S. cerevisiae, UniProt P12868 1-1029).
T2 sequence: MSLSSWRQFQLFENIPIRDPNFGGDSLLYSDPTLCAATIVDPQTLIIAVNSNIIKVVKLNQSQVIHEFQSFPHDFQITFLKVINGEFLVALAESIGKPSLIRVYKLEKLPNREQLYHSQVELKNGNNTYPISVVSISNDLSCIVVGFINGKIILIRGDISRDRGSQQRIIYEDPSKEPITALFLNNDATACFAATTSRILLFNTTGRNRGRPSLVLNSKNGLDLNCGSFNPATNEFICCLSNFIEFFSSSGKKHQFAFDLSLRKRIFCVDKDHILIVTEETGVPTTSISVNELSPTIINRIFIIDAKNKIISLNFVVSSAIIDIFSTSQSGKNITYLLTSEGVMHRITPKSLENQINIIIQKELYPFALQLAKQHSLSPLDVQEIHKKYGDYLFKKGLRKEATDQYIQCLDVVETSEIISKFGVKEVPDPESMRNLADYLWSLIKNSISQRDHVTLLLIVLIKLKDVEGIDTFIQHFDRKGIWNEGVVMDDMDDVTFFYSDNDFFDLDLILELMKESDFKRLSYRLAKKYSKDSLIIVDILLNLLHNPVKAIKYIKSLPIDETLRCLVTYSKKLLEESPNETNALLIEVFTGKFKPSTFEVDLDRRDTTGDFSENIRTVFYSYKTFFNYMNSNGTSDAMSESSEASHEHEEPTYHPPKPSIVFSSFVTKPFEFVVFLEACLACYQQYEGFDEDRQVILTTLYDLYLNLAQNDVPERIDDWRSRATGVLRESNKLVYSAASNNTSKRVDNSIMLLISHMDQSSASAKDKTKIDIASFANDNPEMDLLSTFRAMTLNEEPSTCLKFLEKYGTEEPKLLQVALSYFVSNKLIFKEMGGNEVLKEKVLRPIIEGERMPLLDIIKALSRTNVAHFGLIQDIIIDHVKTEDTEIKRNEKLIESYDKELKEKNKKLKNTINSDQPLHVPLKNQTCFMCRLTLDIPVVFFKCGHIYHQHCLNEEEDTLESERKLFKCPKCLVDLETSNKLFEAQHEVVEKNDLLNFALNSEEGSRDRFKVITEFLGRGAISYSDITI
The assay is described as follows: two-hybrid.

In assay [8] the target is T3, Vps21 (two-hybrid fusion) (S. cerevisiae, UniProt P36017 1-210).
T3 sequence: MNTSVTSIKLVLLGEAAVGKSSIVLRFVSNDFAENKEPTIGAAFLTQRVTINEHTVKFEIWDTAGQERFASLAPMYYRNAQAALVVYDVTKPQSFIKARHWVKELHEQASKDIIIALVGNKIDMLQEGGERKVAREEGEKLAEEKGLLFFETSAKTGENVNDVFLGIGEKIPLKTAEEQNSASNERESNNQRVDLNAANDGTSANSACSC
As to the kind of experiment: two-hybrid.

A further assay deals with T4, protein A–Vps39 (S. cerevisiae, UniProt Q07468 1-1049).
T4 sequence: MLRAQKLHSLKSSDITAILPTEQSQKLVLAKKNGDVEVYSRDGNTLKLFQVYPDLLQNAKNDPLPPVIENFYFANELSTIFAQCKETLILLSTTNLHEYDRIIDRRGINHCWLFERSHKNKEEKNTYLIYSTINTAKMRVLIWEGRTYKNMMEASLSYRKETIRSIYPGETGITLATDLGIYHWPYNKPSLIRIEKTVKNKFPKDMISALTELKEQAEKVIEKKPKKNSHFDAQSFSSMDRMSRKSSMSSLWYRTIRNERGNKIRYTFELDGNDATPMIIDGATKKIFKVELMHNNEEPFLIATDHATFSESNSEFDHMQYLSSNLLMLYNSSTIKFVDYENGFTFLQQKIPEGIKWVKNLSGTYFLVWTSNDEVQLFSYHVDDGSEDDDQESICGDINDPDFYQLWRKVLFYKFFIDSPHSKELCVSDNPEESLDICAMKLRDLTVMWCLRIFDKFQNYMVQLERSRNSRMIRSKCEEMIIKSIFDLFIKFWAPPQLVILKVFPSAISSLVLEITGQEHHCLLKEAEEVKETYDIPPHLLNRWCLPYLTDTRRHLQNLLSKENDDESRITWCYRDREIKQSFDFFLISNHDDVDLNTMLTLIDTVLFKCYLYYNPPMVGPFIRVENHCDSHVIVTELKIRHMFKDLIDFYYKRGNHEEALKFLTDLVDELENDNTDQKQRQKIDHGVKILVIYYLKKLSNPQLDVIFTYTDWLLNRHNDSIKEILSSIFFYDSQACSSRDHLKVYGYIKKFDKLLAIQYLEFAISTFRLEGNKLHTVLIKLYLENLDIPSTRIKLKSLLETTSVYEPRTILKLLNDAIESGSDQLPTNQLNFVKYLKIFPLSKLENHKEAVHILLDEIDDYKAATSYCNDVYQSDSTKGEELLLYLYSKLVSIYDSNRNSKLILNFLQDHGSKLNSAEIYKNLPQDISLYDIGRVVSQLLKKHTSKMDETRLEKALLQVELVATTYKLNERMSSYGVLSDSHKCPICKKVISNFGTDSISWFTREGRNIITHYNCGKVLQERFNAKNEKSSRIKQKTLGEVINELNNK
The assay is described as follows: pull-down.

A value given as a limit tells only on which side of the number the result lay.

B1: Vps39 (two-hybrid fusion) (natural protein)
chain: MLRAQKLHSLKSSDITAILPTEQSQKLVLAKKNGDVEVYSRDGNTLKLFQVYPDLLQNAKNDPLPPVIENFYFANELSTIFAQCKETLILLSTTNLHEYDRIIDRRGINHCWLFERSHKNKEEKNTYLIYSTINTAKMRVLIWEGRTYKNMMEASLSYRKETIRSIYPGETGITLATDLGIYHWPYNKPSLIRIEKTVKNKFPKDMISALTELKEQAEKVIEKKPKKNSHFDAQSFSSMDRMSRKSSMSSLWYRTIRNERGNKIRYTFELDGNDATPMIIDGATKKIFKVELMHNNEEPFLIATDHATFSESNSEFDHMQYLSSNLLMLYNSSTIKFVDYENGFTFLQQKIPEGIKWVKNLSGTYFLVWTSNDEVQLFSYHVDDGSEDDDQESICGDINDPDFYQLWRKVLFYKFFIDSPHSKELCVSDNPEESLDICAMKLRDLTVMWCLRIFDKFQNYMVQLERSRNSRMIRSKCEEMIIKSIFDLFIKFWAPPQLVILKVFPSAISSLVLEITGQEHHCLLKEAEEVKETYDIPPHLLNRWCLPYLTDTRRHLQNLLSKENDDESRITWCYRDREIKQSFDFFLISNHDDVDLNTMLTLIDTVLFKCYLYYNPPMVGPFIRVENHCDSHVIVTELKIRHMFKDLIDFYYKRGNHEEALKFLTDLVDELENDNTDQKQRQKIDHGVKILVIYYLKKLSNPQLDVIFTYTDWLLNRHNDSIKEILSSIFFYDSQACSSRDHLKVYGYIKKFDKLLAIQYLEFAISTFRLEGNKLHTVLIKLYLENLDIPSTRIKLKSLLETTSVYEPRTILKLLNDAIESGSDQLPTNQLNFVKYLKIFPLSKLENHKEAVHILLDEIDDYKAATSYCNDVYQSDSTKGEELLLYLYSKLVSIYDSNRNSKLILNFLQDHGSKLNSAEIYKNLPQDISLYDIGRVVSQLLKKHTSKMDETRLEKALLQVELVATTYKLNERMSSYGVLSDSHKCPICKKVISNFGTDSISWFTREGRNIITHYNCGKVLQERFNAKNEKSSRIKQKTLGEVINELNNK
With B1, the β-galactosidase activity was around 13 U in assay [1]; around 3 U in assay [2]; 31 U in assay [3]; around 4 U in assay [4]; around 5 U in [5]; below 0.25 U in the assay with Ras1 (two-hybrid fusion). Moreover, the values for the β-galactosidase activity in assay [6], in assay [7] and in [8] were around 13 U, 2.8 U and below 0.25 U, respectively.

B2: GST-Ypt7 (natural protein)
chain: MSSRKKNILKVIILGDSGVGKTSLMHRYVNDKYSQQYKATIGADFLTKEVTVDGDKVATMQVWDTAGQERFQSLGVAFYRGADCCVLVYDVTNASSFENIKSWRDEFLVHANVNSPETFPFVILGNKIDAEESKKIVSEKSAQELAKSLGDIPLFLTSAKNAINVDTAFEEIARSALQQNQADTEAFEDDYNDAINIRLDGENNSCSC
For B2, the binding result in the assay with protein A–Vps39 is given as “binds”.
